Results from doi:10.1101/2022.03.06.483192, “Structural maturation of SYCP1-mediated meiotic chromosome synapsis through conformational remodelling by molecular adapter SYCE3” (bioRxiv, 2022).
Values joined by “and” are separate entries in the source; they are usually repeats but may differ in a detail not shown here. Equal entries are not always repeated. Values belong to the binder of their own block, whether it stands above or below them.

B1: SYCP1 αCore-ΔNtip (domain or fragment, UniProt Q15431 112-783, looked up)
chain: EAEKIKKWKVSTEAELRQKESKLQENRKIIEAQRKAIQELQFGNEKVSLKLEEGIQENKDLIKENNATRHLCNLLKETCARSAEKTKKYEYEREETRQVYMDLNNNIEKMITAFEELRVQAENSRLEMHFKLKEDYEKIQHLEQEYKKEINDKEKQVSLLLIQITEKENKMKDLTFLLEESRDKVNQLEEKTKLQSENLKQSIEKQHHLTKELEDIKVSLQRSVSTQKALEEDLQIATKTICQLTEEKETQMEESNKARAAHSFVVTEFETTVCSLEELLRTEQQRLEKNEDQLKILTMELQKKSSELEEMTKLTNNKEVELEELKKVLGEKETLLYENKQFEKIAEELKGTEQELIGLLQAREKEVHDLEIQLTAITTSEQYYSKEVKDLKTELENEKLKNTELTSHCNKLSLENKELTQETSDMTLELKNQQEDINNNKKQEERMLKQIENLQETETQLRNELEYVREELKQKRDEVKCKLDKSEENCNNLRKQVENKNKYIEELQQENKALKKKGTAESKQLNVYEIKVNKLELELESAKQKFGEITDTYQKEIEDKKISEENLLEEVEKAKVIADEAVKLQKEIDKRCQHKIAEMVALMEKHKHQYDKIIEERDSELGLYKSKEQEQSSLRASLEIELSNLKAELLSVKKQLEIEREEKEKLKREAKE
notes: SYCP1 α-helical core without the αNtip, amino-acids 112-783; tetramer alone by SEC-MALS; also called SYCP1's full α-helical core, in which αNtips were deleted (amino-acids 112-783); source: E. coli BL21(DE3), purified; alone or in complex with SYCE3
B5: SYCP1αNcore (domain or fragment, UniProt Q15431 206-362, looked up)
chain: ETRQVYMDLNNNIEKMITAFEELRVQAENSRLEMHFKLKEDYEKIQHLEQEYKKEINDKEKQVSLLLIQITEKENKMKDLTFLLEESRDKVNQLEEKTKLQSENLKQSIEKQHHLTKELEDIKVSLQRSVSTQKALEEDLQIATKTICQLTEEKETQ
notes: SYCP1 tetrameric core (αNcore), amino-acids 206-362; tetramer alone by SEC-MALS; two chains in the 2:1 complex with SYCE3; also called SYCP1 tetrameric core; SYCP1αNT; source: E. coli BL21(DE3), purified (amylose, TEV cleavage, anion exchange, SEC); alone or co-expressed with SYCE3; not shown: MBP, N-terminal, cleaved
B6: SYCP1αN (domain or fragment, UniProt Q15431 101-362, looked up)
chain: GLSRVYSKLYKEAEKIKKWKVSTEAELRQKESKLQENRKIIEAQRKAIQELQFGNEKVSLKLEEGIQENKDLIKENNATRHLCNLLKETCARSAEKTKKYEYEREETRQVYMDLNNNIEKMITAFEELRVQAENSRLEMHFKLKEDYEKIQHLEQEYKKEINDKEKQVSLLLIQITEKENKMKDLTFLLEESRDKVNQLEEKTKLQSENLKQSIEKQHHLTKELEDIKVSLQRSVSTQKALEEDLQIATKTICQLTEEKETQ
notes: SYCP1 α-helical N-terminal region (αN), amino-acids 101-362; also called SYCP1's full α-helical N-terminal region (amino-acids 101-362); source: E. coli BL21(DE3), purified; alone or co-expressed with SYCE3

How the values were obtained:
[1] = target: the molecule itself; experiment: SEC-MALS; purified proteins or co-expressed, purified complexes at 5-20 mg/ml; Superdex 200 Increase 10/300 GL, 20 mM Tris pH 8.0, 150 mM KCl, 2 mM DTT
SYCP1αNcore [2] = target: B5; experiment: ITC; SYCE3 (400 µM) injected into SYCP1αNcore (70 µM); 30°C; 25 mM Tris pH 8.0, 250 mM KCl, 2 mM DTT; apparent; settings: both partners purified
[3] = target: T1, SYCE2-TEX12core, labelled (UniProt Q6PIF2 57-165; Q9BXU0 49-123, labelled with the Monolith NT Protein Labelling Kit RED (which chain is not told) | labelled with the Monolith NT Protein Labelling Kit RED (which chain is not told)); experiment: MST; SYCE3 titrated (1:1 dilutions) into 150 nM labelled SYCE2-TEX12core; Monolith NT.115, premium treated capillaries, excitation and MST power 40 %; apparent; settings: both partners purified
T1 construct: SYCE2 structural core; TEX12 structural core; source: E. coli BL21(DE3), purified
T1 sequence (looked up) 1: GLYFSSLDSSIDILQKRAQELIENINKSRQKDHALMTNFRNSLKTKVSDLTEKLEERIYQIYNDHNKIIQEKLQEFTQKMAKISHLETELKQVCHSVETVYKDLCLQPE
T1 sequence (looked up) 2: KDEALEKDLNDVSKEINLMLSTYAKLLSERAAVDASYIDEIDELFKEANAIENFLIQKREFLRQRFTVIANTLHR

SYCP1αN V105E L109E = target: T2, SYCP1αN V105E L109E (UniProt Q15431 101-362, V105E | L109E); experiment: SEC-MALS; purified proteins or co-expressed, purified complexes at 5-20 mg/ml; Superdex 200 Increase 10/300 GL, 20 mM Tris pH 8.0, 150 mM KCl, 2 mM DTT; settings: both partners purified
T2 construct: SYCP1αN, amino-acids 101-362, with V105E L109E; source: E. coli BL21(DE3), complex with SYCE3
T2 sequence (looked up): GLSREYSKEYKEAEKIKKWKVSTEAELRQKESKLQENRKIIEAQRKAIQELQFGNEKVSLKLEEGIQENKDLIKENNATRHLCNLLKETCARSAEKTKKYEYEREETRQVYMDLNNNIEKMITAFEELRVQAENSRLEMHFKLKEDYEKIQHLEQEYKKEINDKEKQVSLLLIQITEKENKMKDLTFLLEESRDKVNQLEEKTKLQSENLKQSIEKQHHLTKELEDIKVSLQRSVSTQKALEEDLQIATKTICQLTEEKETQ

SYCP1αN ΔNtip = target: T3, SYCP1αN ΔNtip (UniProt Q15431 112-362); experiment: as above; settings: both partners purified
T3 construct: SYCP1αN (101-362) with the αNtip (amino-acids 101-111) deleted; also called SYCP1 ΔNtip; source: E. coli BL21(DE3), co-expressed with SYCE3, complex purified
T3 sequence (looked up): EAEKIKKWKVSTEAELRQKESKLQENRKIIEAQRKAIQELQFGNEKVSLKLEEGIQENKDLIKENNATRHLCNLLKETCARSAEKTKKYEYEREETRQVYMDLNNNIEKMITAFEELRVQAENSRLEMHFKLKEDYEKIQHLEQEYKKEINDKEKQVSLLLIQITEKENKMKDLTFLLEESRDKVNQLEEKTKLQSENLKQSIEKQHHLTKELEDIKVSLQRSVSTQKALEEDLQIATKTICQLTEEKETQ

SYCP1αNcore [4] = target: B5; experiment: as above; settings: both partners purified
SYCP1αN = target: B6; experiment: as above; settings: both partners purified
SYCP1 αCore-ΔNtip = target: B1; experiment: as above; settings: both partners purified
MBP-SYCP1αN = target: T4, MBP-SYCP1αN (UniProt Q15431 101-362); experiment: SEC-MALS; MBP-SYCP1αN-His-SYCE3 complex on a Superose 6 increase 10/300 GL column; settings: both partners purified
T4 construct: SYCP1αN, amino-acids 101-362; source: E. coli BL21(DE3), co-expressed with His-SYCE3, complex purified
T4 sequence (looked up): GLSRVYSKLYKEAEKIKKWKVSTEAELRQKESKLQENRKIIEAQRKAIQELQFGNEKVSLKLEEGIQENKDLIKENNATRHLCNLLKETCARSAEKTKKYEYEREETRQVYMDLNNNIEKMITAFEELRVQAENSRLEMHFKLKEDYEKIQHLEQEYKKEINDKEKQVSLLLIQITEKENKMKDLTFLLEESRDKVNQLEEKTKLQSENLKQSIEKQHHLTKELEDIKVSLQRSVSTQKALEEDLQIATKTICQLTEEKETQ

MBP-SYCP1αNcore = target: T5, MBP-SYCP1αNcore (UniProt Q15431 206-362); experiment: SEC-MALS; purified proteins or co-expressed, purified complexes at 5-20 mg/ml; Superdex 200 Increase 10/300 GL, 20 mM Tris pH 8.0, 150 mM KCl, 2 mM DTT; settings: both partners purified
T5 construct: SYCP1 tetrameric core (αNcore), amino-acids 206-362; also called MBP-SYCP1 (amino-acids 206-362); source: E. coli BL21(DE3), co-expressed with SYCE3 constructs; in lysate for the pull-down, co-purified (amylose, anion exchange, SEC); not shown: MBP, N-terminal, kept
T5 sequence (looked up): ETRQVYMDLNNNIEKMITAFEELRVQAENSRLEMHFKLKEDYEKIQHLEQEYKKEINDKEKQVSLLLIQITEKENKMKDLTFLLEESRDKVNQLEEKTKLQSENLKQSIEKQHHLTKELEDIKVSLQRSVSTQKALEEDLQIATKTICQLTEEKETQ

Binder: B1
stoichiometry N [1]: 4

B3: His-SYCE3 (natural protein, UniProt A1L190 1-88, looked up)
chain: MDDADPEERNYDNMLKMLSDLNKDLEKLLEEMEKISVQATWMAYDMVVMRTNPTLAESMRRLEDAFVNCKEEMEKNWQELLHETKQRL
notes: SYCE3, wild type; SYCE3 1-88 (human) was cloned for the two-hybrid; also called SYCE3 wild-type (WT); source: E. coli BL21(DE3), co-expressed with MBP fusions; in lysate for pull-downs, co-purified (amylose, anion exchange, SEC); not shown: His, N-terminal, kept
stoichiometry N (MBP-SYCP1αN): 2 SYCP1 chains per SYCE3 chain (2:1 species) and 2 SYCP1 chains per SYCE3 chain (4:2 species: 4 SYCP1, 2 SYCE3)
stoichiometry N (MBP-SYCP1αNcore): 2 SYCP1 chains per SYCE3 chain

Binder: B5
stoichiometry N [1]: 4

Binder: B6
binding result [1]: binds

More lines, main results first:

Kd (SYCP1αNcore [2]): 0.17 µM
Kd [3]: 21.8 µM
stoichiometry N (SYCP1αN V105E L109E): 2 SYCP1 chains per SYCE3 chain
stoichiometry N (SYCP1αN ΔNtip): 2 SYCP1 chains per SYCE3 chain
stoichiometry N (SYCP1αNcore [4]): 2 SYCP1 chains per SYCE3 chain
stoichiometry N (SYCP1 αCore-ΔNtip): 2 SYCP1 chains per SYCE3 chain
B2: SYCE3 (natural protein, UniProt A1L190 1-88, looked up)
chain: MDDADPEERNYDNMLKMLSDLNKDLEKLLEEMEKISVQATWMAYDMVVMRTNPTLAESMRRLEDAFVNCKEEMEKNWQELLHETKQRL
notes: SYCE3, wild type; dimer alone by SEC-MALS; one chain in the 2:1 complex with SYCP1; also called SYCE3 wild-type; free SYCE3; source: alone or co-expressed with SYCP1 constructs; not shown: His, N-terminal, cleaved
stoichiometry N (SYCP1αN): 2 SYCP1 chains per SYCE3 chain (2:1 species) and 2 SYCP1 chains per SYCE3 chain (4:2 species: 4 SYCP1, 2 SYCE3)
stoichiometry N [1]: 2

stoichiometry N (SYCP1αNcore [4]): 2 SYCP1 chains per SYCE3 chain
B4: SYCE3 12-88 (domain or fragment, UniProt A1L190 12-88, looked up)
chain: DNMLKMLSDLNKDLEKLLEEMEKISVQATWMAYDMVVMRTNPTLAESMRRLEDAFVNCKEEMEKNWQELLHETKQRL
notes: SYCE3 residues 12-88; source: E. coli BL21(DE3), co-expressed with SYCP1αNcore, complex purified
